Assay results as given in US20130324474A1 (Eli Lilly, published 2013).

T1: Recombinant Human GFRα-1/GDNF Rα-1 Fc Chimera (human, UniProt P56159 25-429)
T1 construct: Purchased Fc chimera; It was captured on protein A in Biacore and coated on the plate in ELISA; also called GFRα1-Fc; recombinant human GFRα1-Fc chimera, carrier-free; not shown: Fc part of a purchased Fc chimera
T1 sequence (looked up): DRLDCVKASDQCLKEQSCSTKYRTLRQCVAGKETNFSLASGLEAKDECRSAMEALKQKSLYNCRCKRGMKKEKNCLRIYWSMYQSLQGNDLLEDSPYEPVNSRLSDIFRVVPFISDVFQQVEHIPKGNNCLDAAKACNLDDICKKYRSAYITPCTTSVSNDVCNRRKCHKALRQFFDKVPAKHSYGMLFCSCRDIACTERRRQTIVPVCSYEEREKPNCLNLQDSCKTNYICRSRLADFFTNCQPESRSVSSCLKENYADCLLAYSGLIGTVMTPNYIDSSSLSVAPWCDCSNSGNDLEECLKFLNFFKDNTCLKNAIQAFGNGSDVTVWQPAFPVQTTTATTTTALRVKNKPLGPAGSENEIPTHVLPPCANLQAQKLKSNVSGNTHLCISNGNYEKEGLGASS

T2: Recombinant Rat GFRα-1/GDNF Rα-1 Fc Chimera (rat, UniProt Q62997 25-445)
T2 construct: Purchased Fc chimera; not shown: Fc part of a purchased Fc chimera
T2 sequence (looked up): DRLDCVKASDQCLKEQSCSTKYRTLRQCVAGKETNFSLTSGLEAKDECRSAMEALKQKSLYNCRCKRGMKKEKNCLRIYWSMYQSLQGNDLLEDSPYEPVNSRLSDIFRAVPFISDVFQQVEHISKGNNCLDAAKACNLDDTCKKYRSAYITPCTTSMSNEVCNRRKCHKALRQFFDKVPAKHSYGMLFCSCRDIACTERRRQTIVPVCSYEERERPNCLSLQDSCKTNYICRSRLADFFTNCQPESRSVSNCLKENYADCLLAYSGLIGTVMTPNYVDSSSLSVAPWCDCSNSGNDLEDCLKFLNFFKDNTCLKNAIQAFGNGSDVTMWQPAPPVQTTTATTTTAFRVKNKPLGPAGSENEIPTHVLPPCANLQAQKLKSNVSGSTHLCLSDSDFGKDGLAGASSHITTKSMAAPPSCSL

T3: Recombinant Human GFRα-2/GDNF Rα-2 Fc Chimera (human, UniProt O00451 22-441)
T3 construct: Purchased Fc chimera; not shown: Fc part of a purchased Fc chimera
T3 sequence (looked up): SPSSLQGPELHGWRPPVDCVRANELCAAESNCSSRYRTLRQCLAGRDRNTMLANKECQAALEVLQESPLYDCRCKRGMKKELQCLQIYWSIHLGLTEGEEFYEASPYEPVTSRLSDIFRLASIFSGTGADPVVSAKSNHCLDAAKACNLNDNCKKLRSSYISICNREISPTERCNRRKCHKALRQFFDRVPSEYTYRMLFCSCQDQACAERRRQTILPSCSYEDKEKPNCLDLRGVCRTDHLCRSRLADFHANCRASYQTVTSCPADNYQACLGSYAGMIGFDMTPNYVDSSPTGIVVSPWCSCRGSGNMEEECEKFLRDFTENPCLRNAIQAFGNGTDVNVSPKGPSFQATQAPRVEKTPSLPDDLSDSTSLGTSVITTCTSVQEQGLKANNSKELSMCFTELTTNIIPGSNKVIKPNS


Tests used:
[1] = target: T1, Recombinant Human GFRα-1/GDNF Rα-1 Fc …; experiment: SPR (Biacore 2000), GFRα1-Fc captured on protein A, GDNFv as analyte, 1:1 Langmuir, 25 C
Protocol: (§1) A Biacore® 2000 instrument is used to measure the binding kinetics of GDNFv to human and rat GDNF family receptors (GFRα1 and GFRα2). Measurements are performed at 25° C. Samples are dissolved in HBS-EP buffer (150 mM sodium chloride, 3 mM EDTA, 0.005% (w/v) surfactant P-20, pH 7.4). Protein A, Staphylococcus aureus is immobilized on flow cells 1 to 4 of a CM4 sensor chip (GE Healthcare #BR-1005-39) at a level of ˜200 response units (RUs) using amine coupling chemistry to capture GFR Fc chimera (Recombinant Human GFRα-1/GDNF Rα-1 Fc Chimera; Recombinant Human GFRα-2/GDNF Rα-2 Fc Chimera; Recombinant Rat GFRα-1/GDNF Rα-1 Fc Chimera; Recombinant Mouse GFRα-2/GDNF Rα-2 Fc Chimera).
(§2) Binding is evaluated using multiple cycles. Each cycle consists of the following steps: 1) injection of about 10 μL of GFR at a concentration of ˜1.0 μg/mL and a flow rate of 10 μL/min., aiming at a capture of 120-150 RUs; 2) injection of 250 μL of GDNFv at a flow rate of 50 μL/min., in a final concentration rage between 10 nM and 0.04 nM followed by […]. for dissociation; and 3) regeneration using about 30 μL of 10 mM glycine hydrochloride, pH 1.5. Association and dissociation rates for each cycle are evaluated using a “1:1 (Langmuir) binding” model in the BIAevaluation software, version 4.1.

human c-Ret = human c-Ret (human, UniProt P07949 29-1114, phosphorylation at Y1016 is the readout); experiment: cell-based or functional assay
human c-Ret, sequence (P07949 29-1114): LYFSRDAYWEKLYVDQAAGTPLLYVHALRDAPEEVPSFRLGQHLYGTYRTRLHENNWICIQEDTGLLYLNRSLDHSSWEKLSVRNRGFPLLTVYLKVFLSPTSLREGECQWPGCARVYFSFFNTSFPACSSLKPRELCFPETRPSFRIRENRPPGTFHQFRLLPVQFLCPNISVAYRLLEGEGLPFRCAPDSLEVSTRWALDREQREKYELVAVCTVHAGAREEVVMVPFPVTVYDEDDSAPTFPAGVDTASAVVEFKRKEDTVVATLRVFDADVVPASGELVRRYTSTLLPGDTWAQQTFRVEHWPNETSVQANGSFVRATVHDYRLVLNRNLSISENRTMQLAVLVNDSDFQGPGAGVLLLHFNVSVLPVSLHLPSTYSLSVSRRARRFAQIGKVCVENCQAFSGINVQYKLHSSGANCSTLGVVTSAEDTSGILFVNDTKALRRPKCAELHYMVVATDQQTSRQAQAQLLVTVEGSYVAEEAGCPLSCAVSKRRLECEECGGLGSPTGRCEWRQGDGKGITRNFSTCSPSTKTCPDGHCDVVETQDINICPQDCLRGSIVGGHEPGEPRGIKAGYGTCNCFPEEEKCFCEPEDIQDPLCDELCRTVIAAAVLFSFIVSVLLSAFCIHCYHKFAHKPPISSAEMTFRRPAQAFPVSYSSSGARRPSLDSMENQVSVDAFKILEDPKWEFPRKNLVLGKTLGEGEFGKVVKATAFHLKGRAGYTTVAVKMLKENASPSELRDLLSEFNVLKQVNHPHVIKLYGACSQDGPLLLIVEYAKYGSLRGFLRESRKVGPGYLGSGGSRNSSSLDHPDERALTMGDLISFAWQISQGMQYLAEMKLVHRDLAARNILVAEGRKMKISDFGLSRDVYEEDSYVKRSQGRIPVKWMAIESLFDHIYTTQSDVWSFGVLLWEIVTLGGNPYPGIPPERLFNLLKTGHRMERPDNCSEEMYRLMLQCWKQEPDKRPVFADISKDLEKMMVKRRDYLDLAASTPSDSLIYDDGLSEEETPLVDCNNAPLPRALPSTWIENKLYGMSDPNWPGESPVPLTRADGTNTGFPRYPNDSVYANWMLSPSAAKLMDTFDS

[2] = target: T1, Recombinant Human GFRα-1/GDNF Rα-1 Fc …; experiment: Biacore (SPR), GFRα-1; 4 C sample of the 4-week stability comparison
[3] = target: T2, Recombinant Rat GFRα-1/GDNF Rα-1 Fc …; experiment: SPR (Biacore 2000), rat GFRα1-Fc captured on protein A, GDNFv as analyte, 1:1 Langmuir, 25 C
Protocol: as §1, §2

[4] = target: T3, Recombinant Human GFRα-2/GDNF Rα-2 Fc …; experiment: SPR (Biacore 2000), human GFRα2-Fc captured on protein A, GDNFv as analyte, 1:1 Langmuir, 25 C
Protocol: as §1, §2

[5] = target: T1, Recombinant Human GFRα-1/GDNF Rα-1 Fc …; experiment: ELISA, plate-bound human GFRα1-Fc; 4 C sample
Protocol: GDNF wild type and variants are tested in an ELISA assay, in which binding of the GDNF proteins to the plate-bound receptor (GFRα1) is measured. A “no GDNF” condition and/or an “irrelevant protein” condition are used as negative controls.
(§3) Each well of a 96-well plate (Greiner 655081 Immunobind ELISA plates) is coated with 70 μl of human GFRα1 (recombinant human GFRα1-Fc chimera, carrier-free) at 1 μg/ml in carbonate buffer, pH 9.6. If an irrelevant receptor is coated, it is an irrelevant Fc chimera and is coated at the same concentration as GFRα1. The plates are sealed and incubated at 4° C. overnight. The wells are aspirated and washed twice with washing buffer (20 mM Tris (hydroxymethyl) aminomethane, pH 7.4, 0.15 M NaCl, 0.1% Tween-20), using an automatic plate washer. The plates are blocked with 200 μl blocking buffer per well (3% Carnation Instant milk in the above washing buffer) for at least 1 hour at room temperature. Plates are washed twice with washing buffer.
GDNF proteins are serially diluted into blocking buffer at an appropriate concentration range, typically beginning at 5 μg/ml and serially diluting 1:10. A no GDNF control is used, which consists of blocking buffer alone. 50 μl of each GDNF solution is added to the GFRα1 coated wells in triplicate. The plates are incubated for 1.5 hours at room temperature. The wells are then washed 3 times with washing buffer.

[6] = target: T1, Recombinant Human GFRα-1/GDNF Rα-1 Fc …; experiment: ELISA, plate-bound human GFRα1-Fc; lower end of the 95% confidence range, n = 8
Protocol: as §3, with “buffer. […]” for “buffer.”
(§4) A 50 μl aliquot of horseradish peroxidase-conjugated streptavidin (Jackson ImmunoResearch, catalog #016-030-084), diluted 1:1000 in blocking buffer, is added to each well and incubated for 20-30 minutes at room temperature. […] The absorbance of the wells is read at 490 nm on a Molecular Devices SpectraMax250 plate reader. The average absorbance for the triplicate wells for each condition are determined, and the resulting values are processed for EC₅₀ calculation with Graph Pad Prism software to provide a 95% confidence range.

[7] = target: T1, Recombinant Human GFRα-1/GDNF Rα-1 Fc …; experiment: ELISA, plate-bound human GFRα1-Fc; upper end of the 95% confidence range, n = 8
Protocol: as §3, with “buffer. […]” for “buffer.”
as §4

[8] = target: T3, Recombinant Human GFRα-2/GDNF Rα-2 Fc …; experiment: SPR (Biacore 2000), human GFRα2-Fc captured on protein A, GDNF as analyte, 1:1 Langmuir, 25 C
Protocol: as §1, §2

[9] = target: T1, Recombinant Human GFRα-1/GDNF Rα-1 Fc …; experiment: SPR (Biacore 2000), GFRα1-Fc captured on protein A, GDNF as analyte, 1:1 Langmuir, 25 C; in the presence of 400 mM NaCl

Binder	Kd [1] [nM]	koff [1] [s⁻¹]	kon [1] [M⁻¹ s⁻¹]	c-Ret phosphorylation at Y1016, EC50 (human c-Ret) [µg/mL]	Kd [2] [nM]	further results
E. coli-Δ31-N38Q-D95E-GDNF (SEQ ID NO: 9) (ligand, also called GDNF variant 2; clone D9) RGQRGKQRGCVLTAIHLNVTDLGLGYETKEELIFRYCSGSCDAAETTYDKILKNLSRNRRLVSEKVGQACCRPIAFDDDLSFLDDNLVYHILRKHSAKRCGCI	0.047	0.00016	3.9e+06	–	–	–
CHO Δ31-N38Q-K84A-R88K-R90K-D95E-K125E-R130E GDNF (SEQ ID NO: 15) (ligand) RGQRGKQRGCVLTAIHLNVTDLGLGYETKEELIFRYCSGSCDAAETTYDKILANLSKNKRLVSEKVGQACCRPIAFDDDLSFLDDNLVYHILREHSAKECGCI	–	–	–	0.008 to 0.015	–	–
CHO-Δ31-N38Q-K84A-R88K-R90K-D95E-GDNF (SEQ ID NO: 12) (ligand, N-glycosylated at N49 (numbering of mature GDNF), Expressed in CHO cells; also called Δ31-N38Q-KAKKE; GDNF variant 3) RGQRGKQRGCVLTAIHLNVTDLGLGYETKEELIFRYCSGSCDAAETTYDKILANLSKNKRLVSEKVGQACCRPIAFDDDLSFLDDNLVYHILRKHSAKRCGCI	0.029	0.00014	6.2e+06	0.008 to 0.015	0.029	Kd [3]: 0.021 nM; koff [3]: 0.00021 s⁻¹; kon [3]: 9.9e+06 M⁻¹ s⁻¹; Kd [4]: 0.044 nM; koff [4]: 0.00042 s⁻¹; kon [4]: 9.6e+06 M⁻¹ s⁻¹

More lines, main results first:

Kd [1] [nM]	koff [1] [s⁻¹]	kon [1] [M⁻¹ s⁻¹]	c-Ret phosphorylation at Y1016, EC50 (human c-Ret) [µg/mL]	Kd [2] [nM]	Binder	further results
0.044	0.00017	4.2e+06	–	–	E. Coli-Δ31-GDNF (SEQ ID NO: 8) (ligand, The NdeI start codon encodes a Met before R32; also called Delta-31 GDNF; Variant 1) RGQRGKNRGCVLTAIHLNVTDLGLGYETKEELIFRYCSGSCDAAETTYDKILKNLSRNRRLVSDKVGQACCRPIAFDDDLSFLDDNLVYHILRKHSAKRCGCI	–
0.035	0.00016	5e+06	–	–	E. Coli-Δ31-N38Q-K84A-R88K-R90K-D95E-GDNF (SEQ ID NO: 12) (ligand, also called Δ31-N38Q-KAKKE; GDNF variant 3) RGQRGKQRGCVLTAIHLNVTDLGLGYETKEELIFRYCSGSCDAAETTYDKILANLSKNKRLVSEKVGQACCRPIAFDDDLSFLDDNLVYHILRKHSAKRCGCI	–
–	–	–	0.008 to 0.015	0.064	E. Coli-WT-GDNF (SEQ ID NO: 3) (ligand, Expressed in E. coli, not glycosylated; also called WT E. coli GDNF; WT-E. coli GDNF) MSPDKQMAVLPRRERNRQAAAANPENSRGKGRRGQRGKNRGCVLTAIHLNVTDLGLGYETKEELIFRYCSGSCDAAETTYDKILKNLSRNRRLVSDKVGQACCRPIAFDDDLSFLDDNLVYHILRKHSAKRCGCI	EC50 [5]: 0.4 nM; EC50 [6]: 0.3 to 0.4 nM; EC50 [7]: 0.3 to 0.4 nM; Kd [8]: 0.1 nM; koff [8]: 0.00026 s⁻¹; kon [8]: 2.4e+06 M⁻¹ s⁻¹; Kd [9]: 0.064 nM; koff [9]: 0.00035 s⁻¹; kon [9]: 6e+06 M⁻¹ s⁻¹
